Assay [1] addresses Protein A (SpA) (UniProt P38507). The assay is described as follows: SPR. On the technique in general: Surface plasmon resonance follows binding to a sensor surface in real time, without labels.
Assay [2] shares this target. The assay is described as follows: SPR; Protein A amine-coupled to a CM5 chip (channel 2, 122 RU); antibodies eluted by pH (50 mM sodium acetate pH 3.0) as analyte at 12.5 and 25 µg/mL in HBS-P; qualitative; percent able to bind calculated from a standard curve; triplicate.

As for “human Immunoglobulin G purified from human blood plasma (antibody)”, the percentage of antibody still able to bind with Protein A (SpA) [1] is 74.8%; with Protein A (SpA) [2] it was 46.7%.
